This note sets out measurements from article PMC12207370, “Macrocyclic Peptide Probes for Immunomodulatory Protein CD59: Potent Modulators of Bacterial Toxin Activity and Antibody‐Dependent Cytotoxicity” (Angewandte Chemie (International Ed. in English), 2025).

This assay addresses T1, biotinylated CD59 (Homo sapiens, UniProt P13987).
T1 construct: Recombinant soluble human CD59 with an additional C-terminal cysteine residue
T1 sequence (P13987 26-102 limits assumed): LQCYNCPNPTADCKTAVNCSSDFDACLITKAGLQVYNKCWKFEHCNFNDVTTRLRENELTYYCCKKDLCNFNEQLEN
Nature of the assay: mRNA-display cyclic peptide screen against CD59-biotin, NGS abundance after 6th selection round. The conditions noted are these: for Counts (raw counts for peptide sequence), Seq I: NGS sample Seq I; for Counts (raw counts for peptide sequence), Seq I / Counts (raw counts for peptide sequence), Seq II / Counts Seq I / Counts Seq II: sheet R6 (6th selection round); for Counts (raw counts for peptide sequence), Seq II: NGS sample Seq II; for Percentage of the pool, averaged across the two sequencing samples: average of Seq I and Seq II; for Percentage of the pool, averaged across the two sequencing samples / Percentage of the pool, Seq I / Percentage of the pool, Seq II / Percentage Seq I / Percentage Seq II / Percentage Average: sheet R6; for Percentage of the pool, Seq I: counts normalised by total counts of NGS sample Seq I; for Percentage of the pool, Seq II: counts normalised by total counts of NGS sample Seq II; for Percentage Seq I: counts normalised by total counts of sample Seq I; for Percentage Seq I / Percentage Seq II: percentage of the pool; for Percentage Seq II: counts normalised by total counts of sample Seq II; for Percentage Average: percentage of the pool averaged across the two sequencing samples; for Counts Seq I / Counts Seq II: raw NGS counts of peptide sequence; for Counts Seq I: sequencing sample Seq I; for Counts Seq II: sequencing sample Seq II. An outline of the steps: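 Peptide–mRNA fusions were made by in vitro translation with a customised PURE express kit. The kit lacked release factor 1 and methionine and was supplemented with […] initiator tRNA carrying N-chloroacetyl-d-tyrosine. Thioether macrocycles were formed, then enriched and amplified over iterative rounds on CD59-biotin immobilised on streptavidin beads. NGS read counts per sequence were recorded after the 6th selection round.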

As for FVRGDLYSALG, the “Counts (raw counts for peptide sequence), Seq I” value was 80; the “Counts (raw counts for peptide sequence), Seq II” value came to 6; the “Percentage of the pool, averaged across the two sequencing samples” value was determined as 0.016%; the “Percentage of the pool, Seq I” value worked out at 0.018%. Further, the “Percentage of the pool, Seq II” value amounted to 0.014%.
For SWTWGNGSSVRG, the “Percentage Seq I” value came out at 0.187%, the “Percentage Seq II” value is listed as 0.186%, the “Percentage Average” value is listed as 0.186% and the “Counts Seq I” value amounted to 817. The “Counts Seq II” value is 80.
For the sequence DCWVRGSRNYT, the “Counts (raw counts for peptide sequence), Seq I” value is on record as 62; the “Counts (raw counts for peptide sequence), Seq II” value was found to be 6; the “Percentage of the pool, averaged across the two sequencing samples” value came to 0.014%; the “Percentage of the pool, Seq I” value worked out at 0.014%. For the same sequence, the “Percentage of the pool, Seq II” value stood at 0.014%.
On to SIRGGRDYTRG, for which the “Percentage Seq I” value was 0.110%, the “Percentage Seq II” value is on record as 0.128%, the “Percentage Average” value was 0.119% and the “Counts Seq I” value was found to be 482. Moreover, the “Counts Seq II” value is 55.
For the sequence CFAYRTHTTAV, the “Counts (raw counts for peptide sequence), Seq I” value was found to be 63; the “Counts (raw counts for peptide sequence), Seq II” value worked out at 6; the “Percentage of the pool, averaged across the two sequencing samples” value is on record as 0.014%; the “Percentage of the pool, Seq I” value came to 0.014%. Moreover, the “Percentage of the pool, Seq II” value turned out to be 0.014%.
As to HAFGSRDIAYY, the “Counts (raw counts for peptide sequence), Seq I” value stood at 52; the “Counts (raw counts for peptide sequence), Seq II” value came to 5; the “Percentage of the pool, averaged across the two sequencing samples” value stood at 0.012%; the “Percentage of the pool, Seq I” value was found to be 0.012%. Further, the “Percentage of the pool, Seq II” value turned out to be 0.012%.
CFRYRVTPTSY: the “Percentage Seq I” value stood at 0.023%, the “Percentage Seq II” value was found to be 0.014%, the “Percentage Average” value was found to be 0.018% and the “Counts Seq I” value was 100. In addition, the “Counts Seq II” value was determined as 6.
Consider VARGDWNHQFY, for which the “Counts (raw counts for peptide sequence), Seq I” value is recorded as 40; the “Counts (raw counts for peptide sequence), Seq II” value is given as 7; the “Percentage of the pool, averaged across the two sequencing samples” value is 0.013%; the “Percentage of the pool, Seq I” value was found to be 0.009%. Further, the “Percentage of the pool, Seq II” value is listed as 0.016%.
Taken in the same sequence, the figures for WRDRFDQCAL were 67, 6, 0.015%, 0.015% and 0.014%.
Regarding SRGGKDWSRG, the “Percentage Seq I” value was 0.235%, the “Percentage Seq II” value worked out at 0.251%, the “Percentage Average” value came out at 0.243% and the “Counts Seq I” value turned out to be 1026. The “Counts Seq II” value was determined as 108.
The matching figures for CFARRVNNSSL: 0.031%, 0.028%, 0.030%, 137 and 12.
Take VLCHRWHVGSHR: the “Counts (raw counts for peptide sequence), Seq I” value was 54; the “Counts (raw counts for peptide sequence), Seq II” value was 7; the “Percentage of the pool, averaged across the two sequencing samples” value came to 0.014%; the “Percentage of the pool, Seq I” value is 0.012%. Besides, the “Percentage of the pool, Seq II” value came out at 0.016%.
For the sequence HCWVRGSRDYT, the “Percentage Seq I” value came to 0.028%, the “Percentage Seq II” value amounted to 0.046%, the “Percentage Average” value turned out to be 0.037% and the “Counts Seq I” value came to 122. Further, the “Counts Seq II” value came to 20.
Consider HVFGDRSFTRG, for which the “Percentage Seq I” value was 0.028%, the “Percentage Seq II” value amounted to 0.026%, the “Percentage Average” value worked out at 0.027% and the “Counts Seq I” value is recorded as 124. The “Counts Seq II” value is on record as 11.
Taken in the same sequence, the figures for CFAARARNNQTV were 0.091%, 0.093%, 0.092%, 396 and 40.
Turning to FTRGNSTSVLF, the “Counts (raw counts for peptide sequence), Seq I” value is recorded as 51; the “Counts (raw counts for peptide sequence), Seq II” value is recorded as 7; the “Percentage of the pool, averaged across the two sequencing samples” value is listed as 0.014%; the “Percentage of the pool, Seq I” value is recorded as 0.012%. In addition, the “Percentage of the pool, Seq II” value is given as 0.016%.
Turning to FVTGNRNHTRG, the “Percentage Seq I” value is reported as 0.032%, the “Percentage Seq II” value worked out at 0.028%, the “Percentage Average” value stood at 0.030% and the “Counts Seq I” value came out at 142. Besides, the “Counts Seq II” value is listed as 12.
Taken in the same sequence, the figures for YVRGDAWTVLG were 0.027%, 0.019%, 0.023%, 117 and 8.
CFAGRLTIDAAAAAAARTGGG: the “Counts (raw counts for peptide sequence), Seq I” value amounted to 62; the “Counts (raw counts for peptide sequence), Seq II” value came to 9; the “Percentage of the pool, averaged across the two sequencing samples” value stood at 0.018%; the “Percentage of the pool, Seq I” value turned out to be 0.014%. The “Percentage of the pool, Seq II” value was found to be 0.021%.
On to YAWGNRNNAYY, for which the “Percentage Seq I” value worked out at 0.060%, the “Percentage Seq II” value worked out at 0.049%, the “Percentage Average” value is on record as 0.054% and the “Counts Seq I” value is given as 263. Also, the “Counts Seq II” value is on record as 21.
LQPPDRSCLPKI: the “Percentage Seq I” value turned out to be 0.029%, the “Percentage Seq II” value turned out to be 0.030%, the “Percentage Average” value is reported as 0.029% and the “Counts Seq I” value came to 125. Moreover, the “Counts Seq II” value is 13.
YLFGDRFSVRG: the “Percentage Seq I” value was determined as 0.094%, the “Percentage Seq II” value is 0.100%, the “Percentage Average” value came out at 0.097% and the “Counts Seq I” value amounted to 412. Besides, the “Counts Seq II” value is given as 43.
Regarding SISGGRDYTRG, the “Percentage Seq I” value is given as 0.032%, the “Percentage Seq II” value is 0.026%, the “Percentage Average” value is on record as 0.029% and the “Counts Seq I” value turned out to be 141. Also, the “Counts Seq II” value is given as 11.
With YIYWSFTSARG, the “Percentage Seq I” value is reported as 0.050%, the “Percentage Seq II” value is recorded as 0.032%, the “Percentage Average” value stood at 0.041% and the “Counts Seq I” value was 219. Also, the “Counts Seq II” value was determined as 14.
Taken in the same sequence, the figures for CIDVYGRMWA were 0.086%, 0.091%, 0.088%, 375 and 39.
On to SVGGSRSWTRG, for which the “Percentage Seq I” value stood at 0.129%, the “Percentage Seq II” value is listed as 0.146%, the “Percentage Average” value is 0.138% and the “Counts Seq I” value amounted to 566. Also, the “Counts Seq II” value came to 63.
Consider FRGRNDICTH, for which the “Counts (raw counts for peptide sequence), Seq I” value is listed as 73; the “Counts (raw counts for peptide sequence), Seq II” value is listed as 8; the “Percentage of the pool, averaged across the two sequencing samples” value was 0.018%; the “Percentage of the pool, Seq I” value was determined as 0.017%. The “Percentage of the pool, Seq II” value came to 0.019%.
For CFSARTDSSGT, the “Percentage Seq I” value is recorded as 0.053%, the “Percentage Seq II” value amounted to 0.039%, the “Percentage Average” value is reported as 0.046% and the “Counts Seq I” value amounted to 231. The “Counts Seq II” value amounted to 17.
On to PAWGNRQIQYY, for which the “Counts (raw counts for peptide sequence), Seq I” value is given as 58; the “Counts (raw counts for peptide sequence), Seq II” value was 3; the “Percentage of the pool, averaged across the two sequencing samples” value is 0.010%; the “Percentage of the pool, Seq I” value was 0.013%. Moreover, the “Percentage of the pool, Seq II” value stood at 0.007%.
The matching figures for CFVGRLTLTST: 65, 3, 0.011%, 0.015% and 0.007%.
On to DPICTRYNDPR, for which the “Counts (raw counts for peptide sequence), Seq I” value was 46; the “Counts (raw counts for peptide sequence), Seq II” value worked out at 5; the “Percentage of the pool, averaged across the two sequencing samples” value was 0.011%; the “Percentage of the pool, Seq I” value is 0.011%. Also, the “Percentage of the pool, Seq II” value worked out at 0.012%.
On to CFSHRRLEYGV, for which the “Percentage Seq I” value was 0.045%, the “Percentage Seq II” value is 0.046%, the “Percentage Average” value is 0.046% and the “Counts Seq I” value came out at 197. The “Counts Seq II” value is recorded as 20.
As for CHGGRTFIYAWS, the “Percentage Seq I” value is recorded as 0.025%, the “Percentage Seq II” value is given as 0.026%, the “Percentage Average” value was 0.025% and the “Counts Seq I” value came to 108. For the same sequence, the “Counts Seq II” value came out at 11.
As to CFTLRLSQTSV, the “Percentage Seq I” value was found to be 0.156%, the “Percentage Seq II” value was 0.160%, the “Percentage Average” value was found to be 0.158% and the “Counts Seq I” value came out at 682. Also, the “Counts Seq II” value is reported as 69.
